From patent US20200071404A1 come the findings set out here.

The assay concerns the target human CD73 expressed on cells (cancer cell line NCI-H1373 endogenously expressing human CD73; human T cell expressing human CD73) (human) (UniProt P21589). The experiment in a line: cell-based or functional assay.

Chain of human CD73 expressed on cells (cancer cell line NCI-H1373 endogenously expressing human CD73; human T cell expressing human CD73) (human) (P21589 27-549): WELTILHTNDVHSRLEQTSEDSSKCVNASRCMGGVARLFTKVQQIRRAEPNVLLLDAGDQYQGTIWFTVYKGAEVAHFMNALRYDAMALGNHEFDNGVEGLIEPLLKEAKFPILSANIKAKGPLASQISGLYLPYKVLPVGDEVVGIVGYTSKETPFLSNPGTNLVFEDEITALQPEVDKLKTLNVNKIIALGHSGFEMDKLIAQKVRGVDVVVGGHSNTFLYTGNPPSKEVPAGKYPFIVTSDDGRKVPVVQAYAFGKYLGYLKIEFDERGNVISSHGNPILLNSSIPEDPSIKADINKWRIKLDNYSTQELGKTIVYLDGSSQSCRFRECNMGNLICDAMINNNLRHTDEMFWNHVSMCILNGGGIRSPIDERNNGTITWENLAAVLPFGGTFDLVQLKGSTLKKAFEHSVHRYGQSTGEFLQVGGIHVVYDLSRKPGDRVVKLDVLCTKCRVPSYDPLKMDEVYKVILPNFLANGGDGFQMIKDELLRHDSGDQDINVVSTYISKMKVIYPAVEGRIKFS

B1: 6E1 (antibody, from another filing, V domains shown)
VH: EFQLQQSGPELVKPGASVKVSCKASGYAFTSYNMYWVKQSHGKRLEWIGYIDPYNGGSSYNQKFKGKATLTVDKSSSTAYMHLNNLTSEDSAVYYCARGYNNYKAWFAYWGQGTLVTVSA
VL: SIVMTQTPKFLLVSAGDRVTITCKASQSVTNDVAWYQQKPGQSPKLLIYYASNRYTGVPDRFTGSGYGTDFTFTISTMQAEDLAVYFCQQDYSSLTFGAGTKLELK
Take B1: the EC50 (ng/mL), IFNγ; recovery of AMP-dependently suppressed human T cell functions is 132 ng/mL and the EC50 (ng/mL), Proliferation of T cells; recovery of AMP-dependently suppressed human T cell functions came to 357 ng/mL.
